Results published in publication PMC7113306, “Molecular basis of ALK1-mediated signalling by BMP9/BMP10 and their prodomain-bound forms” (Nature Communications, 2020).

T1: soluble endoglin (sENG) (human, UniProt P17813 26-586)
T1 construct: signal peptide in the construct; endoglin (ENG), human, residue 1-586 of the cDNA; source: HEK EBNA, transfected (pCEP4), purified from conditioned medium (HiTrap Excel, HiTrap Q, Superdex 200)
T1 sequence (looked up): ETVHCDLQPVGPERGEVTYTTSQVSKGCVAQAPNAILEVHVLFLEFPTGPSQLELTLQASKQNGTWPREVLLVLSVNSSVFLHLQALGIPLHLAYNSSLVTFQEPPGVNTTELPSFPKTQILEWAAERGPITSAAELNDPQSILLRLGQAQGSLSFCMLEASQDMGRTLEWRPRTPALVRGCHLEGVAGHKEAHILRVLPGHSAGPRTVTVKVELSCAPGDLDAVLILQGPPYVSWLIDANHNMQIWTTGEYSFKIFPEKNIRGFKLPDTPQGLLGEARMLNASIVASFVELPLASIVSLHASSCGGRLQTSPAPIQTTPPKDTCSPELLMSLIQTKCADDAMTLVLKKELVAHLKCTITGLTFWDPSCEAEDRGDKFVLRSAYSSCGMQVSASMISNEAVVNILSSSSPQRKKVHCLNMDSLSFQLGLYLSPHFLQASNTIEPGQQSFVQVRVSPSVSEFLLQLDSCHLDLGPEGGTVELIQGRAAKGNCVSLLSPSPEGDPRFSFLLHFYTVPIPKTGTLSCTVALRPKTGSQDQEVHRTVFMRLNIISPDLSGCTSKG

B1: BMP10 GF-domain from pro-BMP10 (ligand, human, UniProt O95393 317-424, looked up)
chain: NAKGNYCKRTPLYIDFKEIGWDSWIIAPPGYEAYECRGVCNYPLAEHLTPTKHAIIQALVHLKNSQKASKACCVPTKLEPISILYLDKGVVTYKFKYEGMAVSECGCR
notes: BMP10 GF-domain, human, the processed C-terminal product of full length proBMP10; also called BMP10 GF-domain disulphide-linked dimer; source: HEK EBNA, as part of purified pro-BMP10
B2: BMP9 GF-domain from pro-BMP9 (ligand, human, UniProt Q9UK05 320-429, looked up)
chain: SAGAGSHCQKTSLRVNFEDIGWDSWIIAPKEYEAYECKGGCFFPLADDVTPTKHAIVQTLVHLKFPTKVGKACCVPTKLSPISVLYKDDMGVPTLKYHYEGMSVAECGCR
notes: BMP9 GF-domain, human, the processed C-terminal product of full-length proBMP9; also called BMP9 dimer; source: HEK EBNA, as part of purified pro-BMP9

Legend:
[1] = target: the molecule itself; assay: crystal structure; BMP10 GF-domain with ALK1 ECD, 2.3 Å and 2.8 Å, space group P6_(5)22
[2] = target: T2, ALK1 extracellular domain (ALK1 ECD) (human, UniProt P37023 22-118); assay: as above; details: both partners purified
T2 construct: activin receptor-like kinase 1 (ALK1), human, cDNA NM_000020, amino acids 22-118; Released from DsbA-(His)6 by TEV protease; also called ALK1 monomer; source: E. coli Rosetta DE3, periplasm, purified (Ni-NTA, TEV cleavage, Superdex 75); not shown: DsbA, N-terminal, cleaved; His6, N-terminal, cleaved

[3] = target: T1, soluble endoglin (sENG); assay: SEC; analytical gel filtration, Superdex 200 10/300, 20 mM Tris.HCl, 150 mM NaCl, pH 7.4; 100 μg protein with 2-fold molar excess of ALK1 ECD; peaks checked by SDS-PAGE and anti-prodomain blot; details: both partners purified
[4] = target: the molecule itself; assay: crystal structure; pro-BMP9 mixed with ALK1 ECD at 1:1.5, 3.3 Å, space group P6_(1)

T2 sequence (P37023 22-118): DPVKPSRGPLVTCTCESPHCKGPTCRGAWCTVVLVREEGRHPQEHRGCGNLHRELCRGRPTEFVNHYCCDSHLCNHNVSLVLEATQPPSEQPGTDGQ

Binder | stoichiometry N [1] | stoichiometry N [2] | binding result [3] | stoichiometry N [4]
B1 | 2 | 1 ALK1 ECD per BMP10 monomer (2:2) | – | –
B2 | – | – | binds | 2
